B1: 抗LAG-3人鼠嵌合抗体 78H3VL-78H3VH (antibody, V domains shown)
VH: EVQLQQSGPVLAKPGASVKMSCKTSGYTLTDYYMNWVKQSHGKSLEWIGIINPYNGDTSYNQRFKGKATLTVDKSSSTAYMELNSLTSEDSAVYYCARDDGYYVDYFDYWGQGTTLTVSS
VL: DIQMTQSPSSLSASLGERVSLTCRASQDIGNSLNWLQQEPDGTIKRLIYATSSLDSGVPKRFSGSRSGSDYSLTISSLESEDFVDYYCLQHASSPPTFGAGTKLELKR
B2: 抗LAG-3人鼠嵌合抗体 17E3VL-17E3VH (antibody, V domains shown)
VH: EVMLVESGGGLVKPGGSLKLSCAASGFTFITYAMSWVRQTPEKRLEWVASINNGGTHYPDTMKGRFTISRDNARNILYLQMSSLRSEDTAMYYCARSYNGIPHYFDYWGQGTTLTVSS
VL: DILMTQTPASLAVSLGQRATISCRTSESIDNYGVSFMNWFQQKPGQPPRLLIYAASNQGSGVPARFSGSGSGADFSLNIHPMEEDDSALYFCQQSKEVPFTFGSGTKLEIKR
B3: 抗LAG-3人鼠嵌合抗体 29VL-17E3VH (antibody, V domains shown)
VH: EVMLVESGGGLVKPGGSLKLSCAASGFTFITYAMSWVRQTPEKRLEWVASINNGGTHYPDTMKGRFTISRDNARNILYLQMSSLRSEDTAMYYCARSYNGIPHYFDYWGQGTTLTVSS
VL: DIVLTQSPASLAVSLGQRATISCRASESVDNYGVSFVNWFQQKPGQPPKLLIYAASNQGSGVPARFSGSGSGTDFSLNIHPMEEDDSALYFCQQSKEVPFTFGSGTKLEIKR

What follows are binders tested against T1, 带有His标签的人LAG-3蛋白的胞外结构域(Acro) (human, UniProt P18627 23-450) (assay: SPR (Biacore), supernatant captured on Protein A chip, 100 nM human LAG-3 as analyte, 1:1 fit).
T1 construct: extracellular domain; Bought protein (Acro); also called Human-LAG-3-His; 抗原; not shown: His tag
T1 sequence (looked up): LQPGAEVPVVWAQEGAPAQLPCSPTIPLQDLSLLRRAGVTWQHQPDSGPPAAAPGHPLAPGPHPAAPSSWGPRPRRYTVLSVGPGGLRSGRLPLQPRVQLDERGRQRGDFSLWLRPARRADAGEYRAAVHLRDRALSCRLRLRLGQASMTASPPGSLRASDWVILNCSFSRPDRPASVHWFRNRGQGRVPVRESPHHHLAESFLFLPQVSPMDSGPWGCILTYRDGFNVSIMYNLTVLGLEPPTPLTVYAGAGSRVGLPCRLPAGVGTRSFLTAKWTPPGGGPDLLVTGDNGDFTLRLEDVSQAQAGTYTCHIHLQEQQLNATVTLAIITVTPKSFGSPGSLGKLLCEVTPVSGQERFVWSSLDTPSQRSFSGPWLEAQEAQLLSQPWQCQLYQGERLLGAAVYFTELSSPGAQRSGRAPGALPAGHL

Kd, ~100 pM:
B1, B2, B3

— patent CN112010972A (REYOUNG SUZHOU BIOPHARMACEUTICAL CO LTD, dated 2020)
